Data: patent US20180282719A1 (published 2018)

T1: recombinant soluble human IL-6 receptor (SR344) (human, UniProt P08887 20-344, biotinylated (sites not given) where immobilized via streptavidin or used in phage ELISA)
T1 construct: also called soluble IL-6 receptor; membrane-type IL-6 receptor (when biotinylated and immobilized on the chip)
T1 sequence (looked up): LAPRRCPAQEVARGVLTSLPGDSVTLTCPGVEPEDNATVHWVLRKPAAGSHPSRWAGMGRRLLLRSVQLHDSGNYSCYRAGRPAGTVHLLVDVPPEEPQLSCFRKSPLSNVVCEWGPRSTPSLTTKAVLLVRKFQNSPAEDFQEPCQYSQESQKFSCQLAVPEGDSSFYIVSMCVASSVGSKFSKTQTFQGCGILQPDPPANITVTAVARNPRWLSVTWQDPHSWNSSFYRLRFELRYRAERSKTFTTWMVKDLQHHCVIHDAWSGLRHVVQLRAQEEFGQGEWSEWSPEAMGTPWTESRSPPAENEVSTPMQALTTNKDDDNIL

B1: H170/L82 (antibody, IgG1, V domains shown)
VH: QVQLQESGPGLVKPSETLSLTCAVSGHSISHHHAHSWVRQPPGEGLEWIGYISYSGITHYNPHLKGRVTISRDTSKNQFSLKLSSVTAADTAAYYCARVLARITAMDHWGEGTLVTVSS
VL: DIQMTQSPSSLSASVGDSVTITCQASQDISSHLNWYQQKPGKAPELLIYYGSHLHSGVPSRFSGSGSGTDFTFTISSLEAEDAATYYCGQGNRLPYTFGQGTKVEIE
notes: expressed and purified as IgG (IgG1); also called H170/L82-IgG1
B2: Fv4-IgG1 (antibody)
heavy: not shown
light: DIQMTQSPSSLSASVGDSVTITCQASTDISSHLNWYQQKPGKAPELLIYYGSHLLSGVPSRFSGSGSGTDFTFTISSLEAEDAATYYCGQGNRLPYTFGQGTKVEIERTVAAPSVFIFPPSDEQLKSGTASVVCLLNNFYPREAKVQWKVDNALQSGNSQESVTEQDSKDSTYSLSSTLTLSKADYEKHKVYACEVTHQGLSSPVTKSFNRGEC
notes: VH3-IgG1 / VL3-CK

Key:
[1] = target: T1, recombinant soluble human IL-6 receptor …; experiment: SPR Biacore T100, integrated RU of SR344 bound over ten cycles, 37 C
Description: The produced pH-dependent binding clones described above were analyzed using a Biacore T100™ surface plasmon resonance system (GE Healthcare) for their ability to bind to the antigen SR344 multiple times at pH 5.8 and pH 7.4. More specifically, the analysis was carried out as follows. All the measurements were carried out at 37° C. First, the sample antibodies described above were bound onto a recomb-protein A/G (Pierce)-immobilized sensor chip by amine-coupling, where the mobile phase buffer was 10 mM MES (pH 5.8), 150 mM NaCl, and 0.05% TWEEN® 20 (polyoxyethelene sorbitan monolaurate) (step 1). SR344 adjusted to a concentration of about 40 nM was injected as an analyte for 3 minutes at pH 7.4 and allowed to bind (the buffer for injected SR344 was 10 mM MES (pH 7.4), 150 mM NaCl, and 0.05% TWEEN® 20 (polyoxyethelene sorbitan monolaurate)) (step 2). Subsequently, the injection of SR344 was discontinued and a mobile phase of pH 5.8 was allowed to flow for about 70 seconds to expose the antibody/SR344 complex under acidic conditions (step 3). Ten sets of this binding (step 2)/acidity exposure (step 3) process were continuously repeated to observe the sensorgram in real-time, which is shown in FIG. 11. […] In the 10-set repetition of the binding (step 2) and acidic exposure (step 3), almost all H170/L82 and CLH5/L73 antibodies were able to bind to new antigens in each set. […]

[2] = target: T1, recombinant soluble human IL-6 receptor …; experiment: SPR Biacore T100, antibody captured by anti-IgG gamma chain F(ab)2, SR344 analyte, pH 7.4, 37 C
Description: Kinetic analyses of antigen-antibody reactions at pH 7.4 were carried out on the four types of antibodies, i.e., the humanized PM1 antibody (wild type: WT), and […], H3pI/L73-IgG1, Fv2-IgG1, and Fv4-IgG1 constructed in Examples 2 and 10, by using a Biacore T100™ surface plasmon resonance system (GE Healthcare) (buffer: 10 mM MES (pH 7.4), 150 mM NaCl, 0.05% TWEEN® 20 (polyoxyethelene sorbitan monolaurate)). Each antibody was bound on a sensor chip on which an anti-IgG γ chain specific F(ab)₂ (Pierce) was immobilized by amine coupling, and then, SR344 adjusted to a concentration of 9.8 to 40 nM was injected thereto as an analyte. The association to and dissociation from SR344 were observed on a real-time basis for the pH-dependent-binding clones. All the measurements were carried out at 37° C. Association rate constants kₐ (1/Ms) and dissociation rate constants kd (1/s) were calculated using Biacore T100™ Evaluation Software (GE Healthcare), and dissociation constants KD (M) were calculated on the basis of those values (Table 7).
The association to and dissociation from SR344 were observed on a real-time basis using the same method as Example 10 for the eleven types of antibodies, humanized PM1 antibody (wild type: WT) and H3pI/L73-IgG1, Fv1-M71, Fv1-M73, Fv2-IgG1, Fv3-M71, Fv3-M73, Fv4-IgG1, Fv4-IgG2, Fv4-M58, and Fv4-M73, constructed as described above. The association rate constants kₐ (1/Ms) and dissociation rate constants kd. (1/s) were calculated by analysis in the same manner, and the dissociation constants KD (M) were calculated on the basis of those values (Table 11).

[3] = target: T1, recombinant soluble human IL-6 receptor …; experiment: SPR Biacore T100, biotinylated SR344 on streptavidin chip (model of membrane-type IL-6 receptor), antibody as analyte, 37 C
Description: (§1) Binding to the membrane-type IL-6 receptor was evaluated by evaluating binding to the IL-6 receptor immobilized on a sensor chip. SR344 was biotinylated in accordance with a method known among persons with ordinary skill in the art, and the biotinylated SR344 was immobilized on the sensor chip via streptavidin using the affinity between streptavidin and biotin. All the measurements were carried out at 37° C. The mobile phase buffer was 10 mM MES (pH 5.8), 150 mM NaCl and 0.05% TWEEN® 20 (polyoxyethelene sorbitan monolaurate).
(§2) The pH-dependently-binding clones were injected under the condition of pH 7.4 to allow them to bind to SR344, and then, the pH-dependent dissociation of each clone at the pH of the mobile phase, pH 5.8, was observed. The results are shown in FIG. 21 (results for Fv1-M71, Fv1-M73, Fv3-M71, and Fv3-M73 are shown in FIG. 21, while results for other clones are shown in FIGS. 17 and 19). Analyses were carried out in the same manner as in Example 10 and the pH dependencies of the dissociation rate constants of all of the eleven types of clones are shown in Table 12.

[4] = target: T1, recombinant soluble human IL-6 receptor …; experiment: SPR Biacore T100, biotinylated SR344 on streptavidin chip (model of membrane-type IL-6 receptor), antibody as analyte, bound at pH 7.4, dissociation at pH 5.8, 37 C
Description: as §1, §2

[5] = target: T1, recombinant soluble human IL-6 receptor …; experiment: SPR Biacore T100, biotinylated SR344 on streptavidin chip (model of membrane-type IL-6 receptor), antibody as analyte, bound at pH 7.4, dissociation at pH 7.4, 37 C
Description: as §1, §2

Binder | total amount of antigen bound over ten cycles relative to WT [1] | Kd [2] | koff [2] | kon [2] | kd (pH 5.8)/kd (pH 7.4) [3] | koff [4] | koff [5]
B1 | ~4 fold | – | – | – | – | – | –
B2 | – | 1.4 nM | 0.001 s⁻¹ | 720000 M⁻¹ s⁻¹ | 5.56 | 0.0026 s⁻¹ | 0.00047 s⁻¹
